According to PMC4352895, “Jarid2 Methylation via the PRC2 Complex Regulates H3K27me3 Deposition during Cell Differentiation” (Molecular Cell, 2015):

How the values were obtained:
PRC2 = PRC2 HKMT activity with Jarid2 fragments (aa 109–450), recombinant or native chromatin; type: biochemical; conditions: native chromatin; equimolar amounts of Jarid2 fragments aa 109–450; n = 3
Description: Figure 5 Jarid2 Methylation Regulates PRC2 Enzymatic Activity Depending on Chromatin Environment (A) HKMT assay performed with PRC2-Ezh2 on recombinant oligonucleosomes in the presence of peptides mimicking either Jarid2-K116me2 and me3 or H3K27me3. (B) HKMT assay as in (A) performed with PRC2-Ezh2 reconstituted with either Eed WT or F97A. (C) Table indicating the sequences of the peptides and the relative dissociation constant Kd (μM) for ΔEed binding measured by ITC. (D) Ribbons representation of ΔEed-Jarid2-K116me3 and ΔEed-H3K27me3 complexes. Eed is in gray; Jarid2 peptide is in yellow while H3 peptide is in purple, both in stick representation. Eed aromatic amino acids are in stick and cyan color. Top: top views. Bottom: zoom-in of side views. (E) HKMT assay as in (A) in presence of peptides Jarid2-K116me3 WT or F117A. (F) Left: representation of the chimeric proteins used in the HKMT assay. The red cross indicates the point mutations introduced in the protein to perform native chemical ligation. […] Right: quantification of PRC2-HKMT activity in the presence of the three Jarid2 fragments (mean ± SD, n = 3). […]
The N-terminal region of Jarid2 comprises distinct domains for both PRC2 and chromatin interactions ([Son et al., 2013]). […] We then monitored PRC2 enzymatic activity on recombinant or native nucleosomes either alone or in the presence of equimolar amounts of Jarid2 fragments (Figure 5F). […]

PRC2-Ezh2 = test: HKMT assay, PRC2-Ezh2 with Jarid2 fragments, titration of H3K27me3 octamers in recombinant chromatin; type: biochemical; conditions: recombinant chromatin with increasing amount of H3K27me3 octamers
Description: Figure 5 Jarid2 Methylation Regulates PRC2 Enzymatic Activity Depending on Chromatin Environment (A) HKMT assay performed with PRC2-Ezh2 on recombinant oligonucleosomes in the presence of peptides mimicking either Jarid2-K116me2 and me3 or H3K27me3. (B) HKMT assay as in (A) performed with PRC2-Ezh2 reconstituted with either Eed WT or F97A. (C) Table indicating the sequences of the peptides and the relative dissociation constant Kd (μM) for ΔEed binding measured by ITC. (D) Ribbons representation of ΔEed-Jarid2-K116me3 and ΔEed-H3K27me3 complexes. Eed is in gray; Jarid2 peptide is in yellow while H3 peptide is in purple, both in stick representation. Eed aromatic amino acids are in stick and cyan color. Top: top views. Bottom: zoom-in of side views. (E) HKMT assay as in (A) in presence of peptides Jarid2-K116me3 WT or F117A. (F) Left: representation of the chimeric proteins used in the HKMT assay. The red cross indicates the point mutations introduced in the protein to perform native chemical ligation. Red circle indicates K116me3. Right: quantification of PRC2-HKMT activity in the presence of the three Jarid2 fragments (mean ± SD, n = 3). […]
To evaluate a potential competition between H3K27me3 and Jarid2-K116me3, we reconstituted chromatin in presence of increasing ratios of octamers fully methylated on K27 and monitored PRC2 activity in presence of Jarid2 fragments (Figure 5G). […]

B1: fully methylated Jarid2 fragment: peptide containing aa 109–123 (K116me3) coupled through native chemical ligation with the aa 124–450 fragment (protein, UniProt Q92833 109-450, looked up, fragment)
chain: PRLQAQRKFAQSQPNSPSTTPVKIVEPLLPPPATQISDLSKRKPKTEDFLTFLCLRGSPALPNSMVYFGSSQDEEEVEEEDDETEDVKTATNNASSSCQSTPRKGKTHKHVHNGHVFNGSSRSTREKEPVQKHKSKEATPAKEKHSDHRADSRREQASANHPAAAPSTGSSAKGLAATHHHPPLHRSAQDLRKQVSKVNGVTRMSSLGAGVTSAKKMREVRPSPSKTVKYTATVTKGAVTYTKAKRELVKDTKPNHHKPSSAVNHTISGKTESSNAKTRKQVLSLGGASKSTGPAVNGLKVSGRLNPKSCTKEVGGRQLREGLQLREGLRNSKRRLEEAHQA
modifications: K116 trimethyl
notes: peptide containing aa 109–123 (K116me3) coupled through native chemical ligation with the aa 124–450 fragment
stimulation of PRC2 enzymatic activity relative to K116A or K116R fragments, result in words (PRC2): this stimulation was lost | effect of H3K27me3 titration on Jarid2-mediated stimulation of PRC2, result in words (PRC2-Ezh2): no effect on the stimulation of PRC2 mediated by Jarid2
